Reference: paper PMC9816786

Target: Human PCSK9 (full length), 6xHis-tagged, purified (human) (UniProt Q8NBP7)
Assay: BLI; biotinylated PCSK9 or biotinylated CHRD immobilised (0.2 μg/ml), CAP1 in solution, pH 7.5, association and dissociation 600 s

Chain of Human CAP1 (cyclase associated protein 1), 6xHis-tagged, purified (Q01518 whole entry): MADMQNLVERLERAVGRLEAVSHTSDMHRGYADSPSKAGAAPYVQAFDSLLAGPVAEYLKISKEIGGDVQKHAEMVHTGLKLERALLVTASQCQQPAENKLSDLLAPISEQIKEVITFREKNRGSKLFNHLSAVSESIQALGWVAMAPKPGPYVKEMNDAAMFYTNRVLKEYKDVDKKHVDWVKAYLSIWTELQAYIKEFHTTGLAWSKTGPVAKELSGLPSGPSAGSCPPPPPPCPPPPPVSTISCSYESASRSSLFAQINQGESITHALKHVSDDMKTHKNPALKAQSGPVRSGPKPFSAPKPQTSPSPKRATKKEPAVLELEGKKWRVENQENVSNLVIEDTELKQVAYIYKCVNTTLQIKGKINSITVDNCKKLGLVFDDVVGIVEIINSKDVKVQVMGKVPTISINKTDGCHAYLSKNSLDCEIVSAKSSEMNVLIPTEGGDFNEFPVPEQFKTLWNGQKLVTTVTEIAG

In the case of “Human CAP1 (cyclase associated protein 1), 6xHis-tagged, purified (from UniProt Q01518 1-475) (natural protein)”, the Kd is reported as 1360 nM, the koff is reported as 0.00094 s⁻¹ and the kon is reported as 690 M⁻¹ s⁻¹.
